Laboratory results taken from patent publication US6693079.
Positions of bridges follow the written chain, without caps; N, C: chain ends. No end group written: not given here.

T1: recombinant human IGFBP-1 (human, UniProt P08833 26-259)
T1 construct: Plate-coated, biotinylated or coupled to a dextran chip, depending on the assay; also called rhIGFBP-1; biotinylated IGFBP-1
T1 sequence (looked up): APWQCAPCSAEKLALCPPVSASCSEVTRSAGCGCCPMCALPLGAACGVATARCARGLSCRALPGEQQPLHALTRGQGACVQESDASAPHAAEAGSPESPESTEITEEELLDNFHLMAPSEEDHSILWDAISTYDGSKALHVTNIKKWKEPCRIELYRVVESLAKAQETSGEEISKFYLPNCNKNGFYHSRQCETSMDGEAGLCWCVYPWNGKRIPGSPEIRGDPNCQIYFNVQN

B1: bp1-20 (peptide)
peptide: EARVCRAGPLQWLCEKYF-NH2
modifications: disulfide 5-14 (inferred)
notes: Peptide from g3 bp1-01 secondary libraries
B2: bp1-21A (peptide)
peptide: SEVGCRAGPLQWLCEKYFSTY-NH2
modifications: disulfide 5-14 (inferred)
notes: as for B1
B3: bp1-19 (peptide)
peptide: SEMVCRAGPLQWLCEIYF-NH2
modifications: disulfide 5-14 (inferred)
notes: as for B1
B4: bp1-21B (peptide)
peptide: CRAGPLQWLCEKYFSTY-NH2
modifications: disulfide 1-10 (inferred)
notes: as for B1
B5: bp1027 (peptide)
peptide: CKAGPLLWLCERFF
notes: Peptide from g8 bp1-01 secondary libraries
B6: bp1030 (peptide)
peptide: CKEGPLLWLCERFF
notes: as for B5
B7: bp1-10 (peptide)
peptide: CRKGPLQWLCELYF
notes: as for B5
B8: bp1-11 (peptide)
peptide: CRKGPLQWLCEKYF
notes: as for B5
B9: bp1-15 (peptide)
peptide: CAAGPLQWLCEKYF
notes: as for B5
B10: bp1028 (peptide)
peptide: CRAGPLQWLCERFF
notes: as for B5
B11: bp68 (peptide)
peptide: CRAGPLQWLCEKFF
notes: as for B5
B12: bp1029 (peptide)
peptide: CREGPLQWLCERFF
notes: as for B5
B13: bp1-12 (peptide)
peptide: CKEGPLQWLCEKYF
notes: as for B5
B14: bp1-13 (peptide)
peptide: CKEGPLLWLCEKYF
notes: as for B5

molecular target: T1, recombinant human IGFBP-1; assay: BIAcore competition assay or ELISA plate assay

Binding result, binds:
B1
B2
B3
B4

molecular target: T1, recombinant human IGFBP-1; assay: ELISA competition, C-terminal bp1-01 variants

Binding result, binds:
CRAGPLQWLCEKAA (C-terminal variant of bp1-01) [bp1-18]

molecular target: T2, recombinant human IGFBP-3 (human, UniProt P17936 28-291); assay: BIAcore competition assay
T2 construct: also called rhIGFBP-3; biotinylated IGFBP-3
T2 sequence (P17936 28-291 limits assumed): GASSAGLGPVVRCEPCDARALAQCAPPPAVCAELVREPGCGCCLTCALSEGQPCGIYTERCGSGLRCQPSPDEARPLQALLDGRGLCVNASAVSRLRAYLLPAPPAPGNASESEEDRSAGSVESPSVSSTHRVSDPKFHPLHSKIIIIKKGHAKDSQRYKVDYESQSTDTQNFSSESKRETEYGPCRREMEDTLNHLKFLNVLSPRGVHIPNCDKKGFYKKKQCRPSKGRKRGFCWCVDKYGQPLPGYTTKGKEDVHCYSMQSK

Binding result, binds:
CWPVAEWYLCN [bp3-25 (SEQ ID NO:106)]
GPETCWPVAEWYLCN (bp3-01-ox variant) [bp3-41]
ASEEVCWPVAEWYLCN (bp3-01-ox variant) [bp3-30]
ASEEVCWPVAEWYLCNMWGR [4d3.3 (peptide)]
EVCWPVAEWYLCN (bp3-01-ox variant) [bp3-27]
EEVCWPVAEWYLCN (bp3-01-ox variant) [bp3-28]

molecular target: T1, recombinant human IGFBP-1; assay: ELISA plate assay or BIAcore competition, IGF-I inhibition

Binding result, binds:
B5
B6
B7
B8
B9
B10
B11
B12
B13
B14
